# From the domain aggregation screens of Martell et al. (2025)
# Test: soluble fraction after stress (log2 fold change); higher = more stays soluble; pooled small domains, quantitative proteomics
# Details: stress: pH 4
# Summary of the method: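 Pooled custom libraries of small protein domains were subjected to pH 4 and measured by high-throughput quantitative proteomics. The log2 fold change in soluble amount per domain is reported, higher values meaning more remained soluble. This is used as a measure of aggregation propensity.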
row,Sequence,soluble fraction (log2)
1,HMNLPISDREKELLTLLSKGLLYKEIASKLDITIGTVKQHIHNIYHKLHVSNKTEALNLFNK,0.172
2,HMNLRLKEVLDEKNMSLVTLSEKTGIEKGNLSAISNNKKNPTVETLSKIAKALQISLAELFESPP,0.169
3,HMNLSDIETWLRELSLEKYALAFSEAEIDFETLPELTEDDLKEVGLPVGPRRKVWGAIQLLRTTD,-1.37
4,HMNLSNVVIRKVQEMILSGELQEGDKLPPEREMTQRLGIGRPALREGLKSLEMLGLVERRHGLGNFIINKV,-0.475
5,HMNLSPADFSSVRNALGLSLSTVAKESGINRNYLSNFEKKKHFLEETAKVKLRDYYMSIDPDAFAAAL,-0.291
6,HMNLVGGKINSLMTTKNVTIQDLSERSGLTVSQIELLLSGDKVPSLAVLIKIARGLGVRVGTFL,-0.156
7,HMNLVRQHTDYAFRLLVALSQAPGKPISTRTLASAADVPYQFASKIMQKLHEEGLVESVMGPFGGFRLVQ,-0.419
8,HMNLWIDNTQVINDWTEGASERSGSIYLTAGVKPIKMQYFDSVLNAKAILRWQGPGINKSVVPSSALTPG,-0.209
9,HMNMEDIADKIGRLYDNLPDDLKLMIKYRDIDDMTYDEIARKANLPIGTVRSRLHRARDILLREI,-0.108
10,HMNMFGIQRRNHLLSLLQEKKSITVQEAAVIFEVAEETIRRDFRTMEGQGLIVRTHGGALLADD,-1.14
11,HMNMMIIHVNGEKYSFQEPITISELILKLELDSRKIAIEYNLEILPRSLFEITSIKNGDKIEIVHFI,-0.892
12,HMNMPYGTVKWFNDAKGFGFIAPEDGSADVFVHFSAINSKGFRSLQEGQRVSYEVTTGPKGAQAAGVTPVT,-0.91
13,HMNMYTVTGRLVDQDGVPQANALVTIDSSSQQTRTSPQGFYLIKVFGTEPSTIKFLVDGYDPQIVNFTP,-0.278
14,HMNNDIDRVFAELTVLSQKKGYLVFDDIEKGTEDLSVNEVDWLTNRLLTSGVEIFDDVPDTIK,-1.81
15,HMNNDSQYLATLQRYYAEHRVLPSYARMLPLLGFASKAAVKKVLERLEVVGMLERTEDGDWAPSERFFER,0.0419
16,HMNNGYSINEIAKLMKMTLKVVRRYVASGELKTTKTNNTYSISEEAFNEFKKYIEEGGDAKHAQEVADTFK,-0.554
17,HMNNIGENIKKYRTKQGLSQEDFAKKSGVKYTTLTKIESGVIKKPSVLVMAKIAKALGVNIEELI,≥ 0.43
18,HMNNIINEAQIKQWVEEFYLSVSPRPTRATMIALVHKKIKEETKDGEEGQTVSETLINNFYTALEKEHKRK,0.22
19,HMNNIPFIITDERLNVIQSHLVPREVLDHPDRLRRQIDRFTEENQPKTVNYWWGPEHRHIIFYGKSK,0.281
20,HMNNIYFSPVVEENNKGLRLDKFLAASFPEFSRSQLQRLILEGNVSNDDVVIADNSQKVRVGDSFQVIVPE,-0.0304
21,HMNNKSDLLFNHLRQRIATMENGTIFPSVRQLMTEYNVSQSTVSTAIRSLKELGLLEALSRQGMVVRKE,0.104
22,HMNNLGSKIKELRIAENLTQEKLAEELNVSFQSISRWENGISTPDISLIPAIARFFGVSTDYLFGLQD,-1.03
23,HMNNLPDFIKQLRKENNLTQEYVASEIGVSRPTYEQIEKGKRELTISEAEKLAKIFNIPLENFLQGKKGV,-0.0996
24,HMNNPLPDLLKYFRKKKHLTQEQVAKQLSVSRASYASYETGRIIPGMQHIMELSRILEHDFLFAYTLAVQ,-0.446
25,HMNNPNFAIQKYVTGSDIKRVRKTLRLTQKKFAELVGVSKATMERWETKEDKITGPVVLLLKILEDHPEY,-0.0904
26,HMNNQKATAVKVASGIVNLRSGPATSYETLDTVATGETLSVLAEKDGWFQVSRAGRTGWVAGWVVDVIRE,-0.586
27,HMNNSSIGERLKYQRKIKGYSQEELADRTNVTVRTIQRIEKEEVSPHLNTIKLLAIALDIEVDELVAL,-1.18
28,HMNNSVAYSTFLNDIRTNTLKDVDMTSNSETINVTKKDGTKYQTVMPMYDRDLLADLSKTDATVTGQP,-0.155

row,Sequence,soluble fraction (log2)
1,HMNNTIKFSVDIKNSGKRLDIFLSENVTQYTRSYLKRLIENSHVKLNNKILNSPSTKVKFQDQIIINNIE,0.0707
2,HMNNTIKFSVDTTNSGKRLDIFLAENIKQFTRSYLKKIISNNQVKLNNLVANSPSIKVKHSDLILINILE,-0.62
3,HMNNTVLSSVKSINMFLDANGGDAGQAFRIYNNTNPDSNPTESTYIFKVAEDGNTFVKGYLNLNGTTL,0.378
4,HMNNVRIEHIDTIGTVRLHKKRGVKRVSLRIHQSGEIRVTQPLYLPFSAGVLFAKSHTEWIMKQKQK,0.0224
5,HMNNWRRSLEREVTASLARGDRDIFDGLNRSFEAALITKALEHTGGRRIEAATLLGIGRNTLTRKIQDLGL,-0.79
6,HMNNYEGIVKSVSNSNVYIQVAGRTIGYTISPHTIIMVNGKNVPASELMPGQHVSYTNKGSKLSYININS,0.205
7,HMNNYFPAYKGSATSIAPALKQMGVNNSYAYRSKIAAVNNITGYRGTPAQNTQMLNLLKQGRLIK,-0.156
8,HMNNYNDSVQKIINYIADNLNENLSVRKLADKMPMSVSHFNRVFQKYTGDSPYAYVMAMRIKKAKYL,-0.565
9,HMNPAIYIRKNILNLTQEKLSEYLDVTQPTIHRWEESGVIPAKHQRQIREFASEKGIYWNDSWFFSIPDE,-1.2
10,HMNPDMIAGVLKVPAAAGRLRSALFELGVVDDESYDDDGASRLTVTASQSDLERIVAQAGLVFEDVLVERR,-1.3
11,HMNPEAFIQTLKQILSTYEKNDPIYLQEIKADLVKKFRIEIPINALETYLKENGYSNIYLKR,-0.516
12,HMNPEDLSGVRKAAILLLTMDDEVTKDVMKGLDEEEIEAIGKEITNLKLIPDHVVHRVQEEFMTKVSK,-0.375
13,HMNPESRRSELIDAATKLFFSRGYTATSIRDILDAVDDRTASPSVFYYYFESKEAIYQAVLQRYTD,-1.34
14,HMNPETPAQQAVRKRLIVSVQFYRRLKDTPLKAVWQVAARDTLVNGYNLFLKRNIHAFNDRTLSTPSALS,0.089
15,HMNPFPDNTAEVLSQFKNIIVPELNTGQLSKLLRARYLVDTVGINKVEGLPFTAQELEEKIESLINSF,-0.705
16,HMNPGQIIRKLRQDQGMTLAVLAKYANLDPGNLSRIERDDLNISFNLLEKLSLILNVSPIVFFH,-0.0716
17,HMNPLSELSFEERRELFLEAAVRLFEEKGYKNTSVEDIAGELGFTKKVFYYYWKNKREIVQEIHDRGMA,-0.986
18,HMNPNFIEVSHGRLRVNVPLSAYEGTTYHIKPEEAEKLKRTLASRYPWLTPNALKVFIEEAEQAMRERIQ,0.217
19,HMNPSKEFNMSDLLKAKMVGDVSAAKRREKAGALLHIGYGNAKTFLKKLNHFSISREEWDKVIAAMEEF,0.0295
20,HMNPSVSSDERILLQKALGILSAEQKQIVMLHAVAGIKHREIAKLLDMPIATVLSKYSRAVNKLRHAMEA,-0.298
21,HMNPTTDFFKLEGIDATRILVFDQVGRQVAQFSQPAQQMDIQALPAGVYALRIENADGQVYSARIVK,-0.773
22,HMNPVVATTIILDGEIIKDNLAEANLSEEWLLEELKRQNFNDVKEVFYAEWLDGKQLFAYPYTK,-0.789
23,HMNQDIIEIGNNIQKIRKKNGISQSVLAEKIDVAGNSIYRMEGATTVMGVDKLINIADALNTSPMDILPAR,0.0428
24,HMNQDMINFDKLSVRLKNVLIENNLKTVDSLLNYPAEEFEYLTNLGEKTLQELLTYRNELAASNNIQ,-1.17
25,HMNQGKLIEMLQEMKEIAHSQNNYLTKNEIANYLGDTVLSKEQLQAVYHYLGENHIEVEGYVYIP,-0.51
26,HMNQIATSTQAIITTLSFLNTSSIFKLPVGDTASRPTGVSPGTLRFNSQEDSAEIYKADDGTGSAGWTEVA,-1.3
27,HMNQIDEATAATITTLNFLNTNSEFKIPVGDTATRPGTPAIGMMRFNSENDKAEIYVADFDGDGNPGWINL,-1.52
